Results on one substance are retold here after paper PMC11134608, “UBR5 forms ligand-dependent complexes on chromatin to regulate nuclear hormone receptor stability” (Molecular cell, 2023).

In this experiment the target is Full-length human FLAG-UBR5 (human) (UniProt O95071). The experiment is described as follows: SEC-MALS; purified UBR5 full length and Δtandem variant. The conditions noted are these: remark: other sources report otherwise.

In turn, “Full-length human FLAG-UBR5, O95071 1-2799” gave a stoichiometry N of 4.
